Data published in patent US7407939.
Where no end group is shown, it is not given here. Side-chain parts run from the residue outwards. [ ]: non-standard residue; d: D form. The star is where a group is joined. X1 = 5‑aminoethylsulfonamide isoquinoline, O=S(=O)(NCCN*)c1cccc2cnccc12; hLeu = CC(C)CC[C@H](N)C(=O)O; Nle = CCCC[C@H](N)C(=O)O; Orn = NCCC[C@H](N)C(=O)O; Dab = NCC[C@H](N)C(=O)O; Nva = CCC[C@H](N)C(=O)O; Abu = CC[C@H](N)C(=O)O; Dap = NC[C@H](N)C(=O)O; GlyNH2 = aminoglycine; βAla = NCCC(=O)O

Key:
[1] = target: protein kinase A, catalytic subunit; test: cell-based or functional assay
protein kinase B = protein kinase B (UniProt P31749); test: cell-based or functional assay
Sequence of protein kinase B (P31749 whole entry): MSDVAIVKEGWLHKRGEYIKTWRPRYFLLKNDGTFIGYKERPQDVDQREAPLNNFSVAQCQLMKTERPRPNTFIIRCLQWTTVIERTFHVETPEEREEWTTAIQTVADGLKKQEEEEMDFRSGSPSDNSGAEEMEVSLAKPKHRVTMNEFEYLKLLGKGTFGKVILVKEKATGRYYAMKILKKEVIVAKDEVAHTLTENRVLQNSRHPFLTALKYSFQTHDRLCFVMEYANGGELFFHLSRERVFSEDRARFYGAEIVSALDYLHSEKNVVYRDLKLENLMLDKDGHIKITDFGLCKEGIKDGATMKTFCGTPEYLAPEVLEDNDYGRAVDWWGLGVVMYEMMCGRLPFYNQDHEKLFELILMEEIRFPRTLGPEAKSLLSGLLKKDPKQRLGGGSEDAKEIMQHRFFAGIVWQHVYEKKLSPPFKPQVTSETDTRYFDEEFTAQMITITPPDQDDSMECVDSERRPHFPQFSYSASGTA

B1: TY-60020-57 (peptide)
peptide: RPR[Nle]E([Gly-X1])[Dab]F
modifications: not fully specified (C-terminus)
For B1, the % inhibition of kinase activity at 1 µM; PKA-kinase Assay 1 [1] was 95%, the % inhibition of kinase activity at 1 µM; PKA-kinase Assay 2 [1] was 96% and the IC50 PKA [1] was 210 nM. It also gave a % inhibition of kinase activity at 1 µM; PKB-kinase (spa) Assay 1 (protein kinase B) of 92%, a % inhibition of kinase activity at 1 µM; PKB-kinase (spa) Assay 2 (protein kinase B) of 93% and an IC50 PKB (protein kinase B) of 70 nM.

B2: TY-60020-58 (peptide)
peptide: RPR[Nle]E([Gly-X1])[Dab][hLeu]
modifications: not fully specified (C-terminus)
B2 gave a % inhibition of kinase activity at 1 µM; PKA-kinase Assay 1 [1] of 98%, a % inhibition of kinase activity at 1 µM; PKA-kinase Assay 2 [1] of 99% and an IC50 PKA [1] of 50 nM. It also gave a % inhibition of kinase activity at 1 µM; PKB-kinase (spa) Assay 1 (protein kinase B) of 89%, a % inhibition of kinase activity at 1 µM; PKB-kinase (spa) Assay 2 (protein kinase B) of 93% and an IC50 PKB (protein kinase B) of 120 nM.

B3: TY-60020-59 (peptide)
peptide: RPR[Nle]E([Gly-X1])[Orn]F
modifications: not fully specified (C-terminus)
For B3, the % inhibition of kinase activity at 1 µM; PKA-kinase Assay 1 [1] was 92%, the % inhibition of kinase activity at 1 µM; PKA-kinase Assay 2 [1] was 93% and the IC50 PKA [1] was 200 nM. For the same binder, the % inhibition of kinase activity at 1 µM; PKB-kinase (spa) Assay 1 (protein kinase B) was 62%, the % inhibition of kinase activity at 1 µM; PKB-kinase (spa) Assay 2 (protein kinase B) was 75% and the IC50 PKB (protein kinase B) was 300 nM.

B4: TY-60020-95 (peptide)
peptide: RPR[Nle]E([βAla-X1])[Nva]F
modifications: not fully specified (C-terminus)
B4 gave an IC50 PKA [1] of 2000 nM, a % inhibition of kinase activity at 1 µM; PKB-kinase (spa) Assay 1 (protein kinase B) of 46% and a % inhibition of kinase activity at 1 µM; PKB-kinase (spa) Assay 2 (protein kinase B) of 90%. It also gave an IC50 PKB (protein kinase B) of 3300 nM.

B5: 60005-32 (peptide)
peptide: RPRT[GlyNH2]A[hLeu]
Work on B5 yielded a % Inhibition PKA [1] of 4%, a % Inhibition PKB I (protein kinase B) of 43% and a % Inhibition PKB II (protein kinase B) of 44%.

B6: 60005-75 (peptide)
peptide: RPR[Nva]S[GlyNH2][hLeu]
B6 showed a % Inhibition PKA [1] of -4%, a % Inhibition PKB I (protein kinase B) of 70% and a % Inhibition PKB II (protein kinase B) of 70%.

B7: 60005-84 (peptide)
peptide: RPR[Nva]TA[hLeu]
For B7, the % Inhibition PKA [1] was 7%, the % Inhibition PKB I (protein kinase B) was 39% and the % Inhibition PKB II (protein kinase B) was 48%.

B8: 60006-18A (peptide)
peptide: RPR[Nva]GA[hLeu]
For B8, the % Inhibition PKA [1] was 11%, the IC50 µM PKA [1] was over 100 µM and the % Inhibition PKB I (protein kinase B) was 47%. For the same binder, the % Inhibition PKB II (protein kinase B) was 52% and the IC50 µM PKB (protein kinase B) was 9.45 µM.

B9: 60002-38 (peptide)
peptide: RPR[Nva]SAF
B9 showed a % Inhibition PKA [1] of -2%, an IC50 µM PKA [1] of 80 µM and a % Inhibition PKB I (protein kinase B) of 43%. It also gave an IC50 µM PKB (protein kinase B) of 18 µM.

B10: 60002-88 (peptide)
peptide: RPRT[Abu][Dap]F
B10 gave a % Inhibition PKA [1] of -3% and a % Inhibition PKB I (protein kinase B) of 40%.

B11: TY-60020-9 (peptide)
peptide: RPR[Orn]E(X1)[Dab]F
modifications: not fully specified (C-terminus)
Binder B11 has a % inhibition of kinase activity at 1 µM; PKA-kinase Assay 1 [1] of 96%, a % inhibition of kinase activity at 1 µM; PKA-kinase Assay 2 [1] of 97% and a % inhibition of kinase activity at 1 µM; PKB-kinase (spa) Assay 1 (protein kinase B) of 71%. It also gave a % inhibition of kinase activity at 1 µM; PKB-kinase (spa) Assay 2 (protein kinase B) of 57%.

B12: TY-60020-10 (peptide)
peptide: RPR[Orn]E(X1)[Dab][hLeu]
modifications: not fully specified (C-terminus)
B12 was tested, and the % inhibition of kinase activity at 1 µM; PKA-kinase Assay 1 [1] was 92%, the % inhibition of kinase activity at 1 µM; PKA-kinase Assay 2 [1] was 94% and the % inhibition of kinase activity at 1 µM; PKB-kinase (spa) Assay 1 (protein kinase B) was 45%. It also gave a % inhibition of kinase activity at 1 µM; PKB-kinase (spa) Assay 2 (protein kinase B) of 48%.

B13: TY-60020-11 (peptide)
peptide: RPR[Orn]E(X1)[Orn]F
modifications: not fully specified (C-terminus)
With B13 the % inhibition of kinase activity at 1 µM; PKA-kinase Assay 1 [1] was 95%, the % inhibition of kinase activity at 1 µM; PKA-kinase Assay 2 [1] was 96% and the % inhibition of kinase activity at 1 µM; PKB-kinase (spa) Assay 1 (protein kinase B) was 58%. The % inhibition of kinase activity at 1 µM; PKB-kinase (spa) Assay 2 (protein kinase B) was 52%.
